From patent US20050144671A1 (ARIZONA BD OF REGENTS BEHALF OF UNIV OF ARIZONA, published 2005)

Biological target: T1, S-tag-ABI2 (full-length ABI2 cloned in pCITE4a, in vitro translated) (UniProt O04719 1-423)
T1 construct: also called S-tagged ABI2; not shown: S-tag encoded by pCITE4a
T1 sequence (looked up): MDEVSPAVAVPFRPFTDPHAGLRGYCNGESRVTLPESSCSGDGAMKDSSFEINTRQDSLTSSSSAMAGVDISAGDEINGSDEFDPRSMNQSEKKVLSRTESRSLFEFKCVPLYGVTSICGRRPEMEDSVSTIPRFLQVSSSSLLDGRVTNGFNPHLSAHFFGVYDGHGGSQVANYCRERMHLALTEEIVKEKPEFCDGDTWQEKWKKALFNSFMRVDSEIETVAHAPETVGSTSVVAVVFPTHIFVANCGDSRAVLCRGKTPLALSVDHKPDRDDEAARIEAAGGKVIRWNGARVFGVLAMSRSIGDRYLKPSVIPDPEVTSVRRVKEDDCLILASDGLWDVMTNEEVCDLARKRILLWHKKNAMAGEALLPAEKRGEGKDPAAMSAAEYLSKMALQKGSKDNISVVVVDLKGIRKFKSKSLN
Assay: in vitro S-tag pull-down of 35S-labeled Snow1
Description: In-vitro pull down assay: In-vitro pull-down assays were conducted to confirm the physical interaction of Snow1 and Ice1. Full-length snow1 cloned in pGEM-T easy and AtMyb79 (cloned in EcoR I and Xho I sites of pBCSK Stratagene) were used. Full-length Ice1 and ABI2 were cloned in EcoRI/SalI and NcoI/EcoRI sites of pCITE4a. 2 μg each of the linearized plasmid were in vitro transcribed using Megascript T7 RNA polymerase kit (Ambion). 10 μg of the purified transcript of snow1 and AtMyb79 were in vitro translated using Flexi Rabbit Reticulocyte system (Promega) in presence of ³⁵S-methionine. S-tag-Ice1 and S-tag-ABI2 transcripts were translated in absence of ³⁵S-methionine and their proteins were purified using S-tag purification kit (Novagen) as per the manufacturer's instructions. S-Tag Ice1 and S-tag ABI2 bound on the S-Tag slurry were used to pull down ³⁵S-labeled proteins. In another experiment ³⁵S-labeled S-tag Ice was produced and was used for pull-down using either GST-Snow1 or GST-Myb79 proteins. Pull-down assays were conducted as described (Haftler et al 2000).

B1: 35S-labeled Snow1 (full-length snow1 in pGEM-T easy, in vitro transcribed and translated) (other)
chain: MGRAPCCEKMGLKRGPWTPEEDQILVSFILNHGHSNWRALPKQAGLLRCGKSCRLRWMNYLKPDIKRGNFTKEEEDAIISLHQILGNRWSAIAAKLPGRTDNEIKNVWHTHLKKRLEDYQPAKPKTSNKKKGTKPKSESVITSSNSTRSESELADSSNPSGESLFSTSPSTSEVSSMTLISHDGYSNEINMDNKPGDISTIDQECVSFETFGADIDESFWKETLYSQDEHNYVSNDLEVAGLVEIQQEFQNLGSANNEMIFDSEMELLVRCIGICE
modifications: 35S-methionine label
B1: no binding.
